Source: paper PMC8989681, “Functional and structural deficiencies of Gemin5 variants associated with neurological disorders” (Life Science Alliance, 2022)
Where a chain is given by its changes, count along the chain named. Names may count otherwise.

B1: Gemin5 TPR-like dimerization domain R1016C (domain or fragment, human, UniProt Q8TEQ6 845-1097, looked up)
chain: ARSLLPLSTSLDHRSKEELHQDCLVLATAKHSRELNEDVSADVEERFHLGLFTDRATLYRMIDIEGKGHLENGHPELFHQLMLWKGDLKGVLQTAAERGELTDNLVAMAPAAGYHVWLWAVEAFAKQLCFQDQYVKAASHLLSIHKVYEAVELLKSNHFYREAIAIAKARLCPEDPVLKDLYLSWGTVLERDGHYAVAAKCYLGATCAYDAAKVLAKKGDAASLRTAAELAAIVGEDELSASLALRCAQELLL
notes: Tag cut by PreScission protease; also called TPR-like R1016C; source: E. coli BL21-Rosetta (DE3) pLysS, purified (HisTrap, tag cleavage, SEC in 0.2 M NaCl); not shown: His6, N-terminal, cleaved; MBP, N-terminal, cleaved
B2: Gemin5 TPR-like dimerization domain D1019E (domain or fragment, human, UniProt Q8TEQ6 845-1097, looked up)
chain: B1 chain with C172R, D175E
notes: Tag cut by PreScission protease; also called TPR-like D1019E; source: E. coli BL21-Rosetta (DE3) pLysS, purified (HisTrap, tag cleavage, SEC in 0.2 M NaCl); not shown: His6, N-terminal, cleaved; MBP, N-terminal, cleaved
B3: Xpress-G5_(845-1508)-WT, Q8TEQ6 D1019E (protein)
chain: ARSLLPLSTSLDHRSKEELHQDCLVLATAKHSRELNEDVSADVEERFHLGLFTDRATLYRMIDIEGKGHLENGHPELFHQLMLWKGDLKGVLQTAAERGELTDNLVAMAPAAGYHVWLWAVEAFAKQLCFQDQYVKAASHLLSIHKVYEAVELLKSNHFYREAIAIAKARLRPEEPVLKDLYLSWGTVLERDGHYAVAAKCYLGATCAYDAAKVLAKKGDAASLRTAAELAAIVGEDELSASLALRCAQELLLANNWVGAQEALQLHESLQGQRLVFCLLELLSRHLEEKQLSEGKSSSSYHTWNTGTEGPFVERVTAVWKSIFSLDTPEQYQEAFQKLQNIKYPSATNNTPAKQLLLHICHDLTLAVLSQQMASWDEAVQALLRAVVRSYDSGSFTIMQEVYSAFLPDGCDHLRDKLGDHQSPATPAFKSLEAFFLYGRLYEFWWSLSRPCPNSSVWVRAGHRTLSVEPSQQLDTASTEETDPETSQPEPNRPSELDLRLTEEGERMLSTFKELFSEKHASLQNSQRTVAEVQETLAEMIRQHQKSQLCKSTANGPDKNEPEVEAEQPLCSSQSQCKEEKNEPLSLPELTKRLTEANQRMAKFPESIKAWPFPDVLECCLVLLLIRSHFPGCLAQEMQQQAQELLQKYGNTKTYRRHCQTFCM
B4: Xpress-G5_(845-1508)-WT, Q8TEQ6 R1016C (protein)
chain: B3 chain with R172C, E175D
B5: Xpress-G5_(845-1508)-WT, Q8TEQ6 A951E (protein)
chain: B3 chain with A107E, E175D

Key:
[1] = target: the molecule itself; test: SEC-MALS; 250 ul of purified TPR-like domain at 1-3 mg/ml on Superdex 200 10/300; 20 mM Tris-HCl pH 6.8, 0.2 M NaCl, 5% glycerol, 1 mM DTT; 0.5 ml/min
[2] = target: 80S ribosomes, P05388;P63244; test: sedimentation with native ribosomes (80S fraction), immunoblot quantification; settings: chain shown with the change; HEK293 cells expressing Xpress-tagged G5845-1508 proteins; parent: est. 1.0; read off a plot

Binder | stoichiometry N [1] | other: G5845-1508 intensity 80S/S30 [2]
B1 | 2 | 
B2 | 2 | 
B3 |  | 0.46
B4 |  | 0.51
B5 |  | 0.48
